Common to all, as to assay: cytokine release
In experiment [1] the target is T1, KRAS G12V peptide on HLA-A*11:01 (human).
T1 peptide: VVVGAVGVGK

Experiment [2] concerns the target T2, KRAS wild type peptide on HLA-A*11:01 (human).
T2 peptide: VVVGAGGVGK

Experiment [3] deals with T3, KRAS G12D peptide on HLA-A*11:01 (human).
T3 peptide: VVVGADGVGK

Experiment [4] addresses T4, KRAS G12D peptide on HLA-A*11:01 (human).
T4 peptide: VVGADGVGK

The target in experiment [5] is T5, KRAS wild type peptide on HLA-A*11:01 (human).
T5 peptide: VVGAGGVGK

In experiment [6] the target is T6, KRAS G12D peptide on HLA-A*11:01 (human).
T6 peptide: VVVGADGVG

For experiment [7], the target named is T7, KRAS G12V peptide on HLA-A*11:01 (human).
T7 peptide: VVGAVGVGK

B1: TRAV16D/DV11*03 + TRBV5*01 (TCR)
alpha TRAV16D/DV11*03 52*01 CDR3: CAMREDTGANTGKLTF
beta TRBV5*01 2*01/2-1*01 CDR3: CASSQDSLGRAEQFF
On to B1, for which the binding result in experiment [1] and in experiment [2] was “no recognition” throughout.

B2: TRAV16D/DV11*03 + TRBV4*01 (TCR)
alpha TRAV16D/DV11*03 52*01 CDR3: CAMREDTGANTGKLTF
Vbeta: ETAVFQTPNYHVTQVGNEVSFNCKQTLGHDTMYWYKQDSKKLLKIMFSYNNKQLIVNETVPRRFSPQSSDKAHLNLRIKSVEPEDSAVYLCASSSRDWSAETLYFGSGTRLTVL
B2: the binding result in experiment [1] and in experiment [2] was “no recognition” throughout.

B3: TRAV3-3*01/TRBV4*01 murine anti-KRAS G12V TCR (SEQ ID NOs: 133 and 134) (TCR, V domains shown)
Valpha: GEQVEQRPPHLSVREGDSAVITCTYTDPNSYYFFWYKQEPGASLQLLMKVFSSTEINEGQGFTVLLNKKDKRLSLNLTAAHPGDSAAYFCAVSGGTNSAGNKLTFGIGTRVLVRP
Vbeta: ETAVFQTPNYHVTQVGNEVSFNCKQTLGHDTMYWYKQDSKKLLKIMFSYNNKQLIVNETVPRRFSPQSSDKAHLNLRIKSVEPEDSAVYLCASSRDWGPAEQFFGPGTRLTVL
As for B3, the binding result in experiment [1] is reported as “recognises”; in experiment [3], “no recognition”; in experiment [4], “no recognition”; in experiment [2] it was “no recognition”.

B4: TRAV4-4/DV10*01/BV12-2*01 murine anti-KRAS G12D TCR (SEQ ID NOs: 157 and 158) (TCR, V domains shown)
Valpha: GDQVEQSPSALSLHEGTDSALRCNFTTTMRSVQWFRQNSRGSLISLFYLASGTKENGRLKSAFDSKERRYSTLHIRDAQLEDSGTYFCAADSSNTGYQNFYFGKGTSLTVIP
Vbeta: NSGVVQSPRYIIKGKGERSILKCIPISGHLSVAWYQQTQGQELKFFIQHYDKMERDKGNLPSRFSVQQFDDYHSEMNMSALELEDSAVYFCASSLTDPLDSDYTFGSGTRLLVI
Turning to B4, the binding result in experiment [5], in experiment [1], in experiment [4] and in experiment [2] was “no recognition” in each case.

B5: Substituted TRAV4-4/DV10*01/BV12-2*01 (CDR3alpha G112A) (SEQ ID NOs: 209 and 158) (TCR, V domains shown)
Valpha: GDQVEQSPSALSLHEGTDSALRCNFTTTMRSVQWFRQNSRGSLISLFYLASGTKENGRLKSAFDSKERRYSTLHIRDAQLEDSGTYFCAADSSNTAYQNFYFGKGTSLTVIP
Vbeta: NSGVVQSPRYIIKGKGERSILKCIPISGHLSVAWYQQTQGQELKFFIQHYDKMERDKGNLPSRFSVQQFDDYHSEMNMSALELEDSAVYFCASSLTDPLDSDYTFGSGTRLLVI
As to B5, the binding result in experiment [3] is “recognises”.

B6: TRAV12N-3*01 + TRBV5*01 (TCR)
Valpha: GDSVTQTEGLVTLTEGLPVMLNCTYQTIYSNPFLFWYVQHLNESPRLLLKSFTDNKRTEHQGFHATLHKSSSSFHLQKSSAQLSDSALYYCALRGNAGAKLTFGGGTRLTVRP
beta TRBV5*01 2*01/2-1*01 CDR3: CASSQDSLGRAEQFF
As to B6, the binding result in experiment [1], in experiment [3] and in experiment [2] was “no recognition” throughout.

B7: TRAV12N-3*01/BV4*01 murine anti-KRAS G12D TCR (SEQ ID NOs: 11 and 12) (TCR, V domains shown)
Valpha: GDSVTQTEGLVTLTEGLPVMLNCTYQTIYSNPFLFWYVQHLNESPRLLLKSFTDNKRTEHQGFHATLHKSSSSFHLQKSSAQLSDSALYYCALRGNAGAKLTFGGGTRLTVRP
Vbeta: ETAVFQTPNYHVTQVGNEVSFNCKQTLGHDTMYWYKQDSKKLLKIMFSYNNKQLIVNETVPRRFSPQSSDKAHLNLRIKSVEPEDSAVYLCASSSRDWSAETLYFGSGTRLTVL
As for B7, the binding result in experiment [5] is on record as “no recognition”; in experiment [1] it was “no recognition”; in experiment [3], “recognises”; in experiment [6], “no recognition”; in experiment [4] it was “no recognition”; in experiment [2], “no recognition”.

B8: TRAV19*01/TRBV13-1*02 murine anti-KRAS G12V TCR (SEQ ID NOs: 145 and 146) (TCR, V domains shown)
Valpha: GQQVKQSSPSLTVQEGGILILNCDYENDMFDYFAWYKKYPDNSPTLLISVRSNVDKREDGRFTVFLNKSGKHFSLHITASQPEDTAVYLCAAGDSGGSNYKLTFGKGTLLTVTP
Vbeta: EAAVTQSPRNKVTVTGGNVTLSCRQTNSHNYMYWYRQDTGHGLRLIHYSYGAGNLQIGDVPDGYKATRTTQEDFFLLLELASPSQTSLYFCASASWGGYAEQFFGPGTRLTVL
As for B8, the binding result in experiment [1] is “recognises”; in experiment [3] it was “no recognition”; in experiment [4] it was “no recognition”; in experiment [7] it was “no recognition”; in experiment [2], “no recognition”.

B9: TRAV3-3*01 + TRBV13-1*02 (TCR, V domains shown)
Valpha: GEQVEQRPPHLSVREGDSAVITCTYTDPNSYYFFWYKQEPGASLQLLMKVFSSTEINEGQGFTVLLNKKDKRLSLNLTAAHPGDSAAYFCAVSGGTNSAGNKLTFGIGTRVLVRP
Vbeta: EAAVTQSPRNKVTVTGGNVTLSCRQTNSHNYMYWYRQDTGHGLRLIHYSYGAGNLQIGDVPDGYKATRTTQEDFFLLLELASPSQTSLYFCASASWGGYAEQFFGPGTRLTVL
As to B9, the binding result in experiment [1], in experiment [3] and in experiment [2] was “no recognition” throughout.

B10: TRAV19*01 + TRBV4*01 (TCR, V domains shown)
Valpha: GQQVKQSSPSLTVQEGGILILNCDYENDMFDYFAWYKKYPDNSPTLLISVRSNVDKREDGRFTVFLNKSGKHFSLHITASQPEDTAVYLCAAGDSGGSNYKLTFGKGTLLTVTP
Vbeta: ETAVFQTPNYHVTQVGNEVSFNCKQTLGHDTMYWYKQDSKKLLKIMFSYNNKQLIVNETVPRRFSPQSSDKAHLNLRIKSVEPEDSAVYLCASSRDWGPAEQFFGPGTRLTVL
On to B10, for which the binding result in experiment [1], in experiment [3] and in experiment [2] was “no recognition” throughout.

The record behind these values is US20250263462A1 (published 2025).
